According to US11834499 (University of California, dated 2023):

Tests used:
[1] = molecular target: T1, human Claudin-18.2 (CLDN18.2) (human); assay: FACS, 1.5 ug antibody, HEK293T-CLDN18.2 C12 clone cells
T1 construct: On cells: fused to GFP in engineered HEK293T cells (clone C12), endogenous in HUPT4 and SNU601 cells; also called human CLDN18.2

[2] = molecular target: T1, human Claudin-18.2 (CLDN18.2); assay: FACS, 1.5 ug antibody, HUPT4 cells (endogenous CLDN18.2)
Protocol: FACS assays were carried out to determine relative antigen binding strengths of the humanized antibodies (at either 1.5 μg or 0.3 μg) for binding to CLDN18.2 as expressed by the indicated cancer cell lines.

| Binder | FACS signal (relative antigen binding strength) [1] | FACS signal (relative antigen binding strength) [2] |
| --- | --- | --- |
| Ab 358 (antibody, V domains shown) VH: VVQLVESGGDFVQPGGSRKLSCAVSGFTFSSFGMHWVRQAPEKGLEWVAYISSGTTNIYYADTVKGRFTVSRDNPKNSLFLHMTSLRSEDTAMYYCVRSGYYGNSLDYWGQGTPLTVSS VL: DIVMTQSPSSLTVTAGEKVTMSCKSSQSLFNSGNQRNYLTWYQQKPGQPPKLLIYWASTRESGVPDRFTGSGSGTGFTLTISSVQAEDLAFYYCQNVYIYPLTFGLGTKLELR | 139000 | 33300 |
| Ab 432 (antibody, V domains shown, also called 432-Chim) VH: QIQLQQSGAELARPRASVKLSCKASGYTFTSDVISWVKQRPGQGLEWIGESYLRNGNTYYNENFKGKATLTADKSSSTAYMELRSLTSEDSAVYFCARSYYGNSFAYWGQGTLVTVSA VL: DIVMTQSPSSLTVTAREKVTMNCKSTQSLLNSGNQKNYLTWYQQKPGQPPKLLIYWASTRESGVPDRFTGSGSGTDFTLTISSVQAEDLAVYYCQNAYYYPFTFGGGTKLEIK | 161000 | 27900 |
| Zolbetuximab (Benchmark 3) (antibody, V domains shown, also called zoletuximab) VH: QVQLQQPGAELVRPGASVKLSCKASGYTFTSYWINWVKQRPGQGLEWIGNIYPSDSYTNYNQKFKDKATLTVDKSSSTAYMQLSSPTSEDSAVYYCTRSWRGNSFDYWGQGTTLTVSS VL: DIVMTQSPSSLTVTAGEKVTMSCKSSQSLLNSGNQKNYLTWYQQKPGQPPKLLIYWASTRESGVPDRFTGSGSGTDFTLTISSVQAEDLAVYYCQNDYSYPFTFGSGTKLEIK | 109000 | 10600 |
| HuAb307-1 (antibody, V domains shown) VH: EVQLLESGGGLVQPGGSLRLSCAASGFTFSSYTMSWVRQAPGKGLEWVATIIIGGSYTYYADSVKGRFTISRDNSKNTLYLQMNSLRAEDTAVYYCTRLVKGNAMDYWGQGTLVTVSS VL: DIVMTQSPDSLAVSLGERATINCKSSQSLLNSGNQKNYLSWYQQKPGQPPKLLIYWASTRESGVPDRFSGSGSGTDFTLTISSLQAEDVAVYYCQNDYSYPFTFGQGTKLEIK | 126000 | 30200 |
| HuAb432-1 (antibody, V domains shown) VH: QVQLVQSGAEVKKPGSSVKVSCKASGYTFTSDVISWVRQAPGQGLEWMGESYLRNGNTYYAQKFQGRVTITADKSTSTAYMELSSLRSEDTAVYYCARSYYGNSFAYWGQGTLVTVSS VL: DIVMTQSPDSLAVSLGERATINCKSTQSLLNSGNQKNYLTWYQQKPGQPPKLLIYWASTRESGVPDRFSGSGSGTDFTLTISSLQAEDVAVYYCQNAYYYPFTFGQGTKLEIK | 97400 | 30600 |
| HuAb360-3 (antibody, V domains shown) VH: QVQLVQSGAEVKKPGASVKMSCKASGYTFTSYLMHWVRQAPGQGLEWIGYINPYNDGTNYAQKFQGRATLTSDTSTSTAYMELSSLRSEDTAVYYCTRGDYWGQGTLVTVSS VL: DIVMTQSPDSLAVSLGERATINCKSSQSLLNSGNQKNYLTWYQQKPGQPPKLLIYWASIRQSGVPDRFSGSGSGTDFTLTISSLQAEDVAVYYCLNDYGFPLTFGQGTKLEIK | 157000 | 27400 |
| HuAb358-2 (antibody, V domains shown) VH: EVQLVESGGGLVQPGGSLRLSCAVSGFTFSSFGMHWVRQAPGKGLEWVAYISSGTTNIYYADSVKGRFTVSRDNAKNSLYLQMNSLRAEDTAVYYCVRSGYYGNSLDYWGQGTLVTVSS VL: DIVMTQSPDSLAVSLGERVTMNCKSSQSLFNSGNQRNYLTWYQQKPGQPPKLLIYWASTRESGVPDRFSGSGSGTDFTLTISSVQAEDVAVYYCQNVYIYPLTFGQGTKLEIK | 122000 | 29800 |
| HuAb360-5 (antibody, V domains shown) VH: QVQLVQSGAEVKKPGASVKMSCKASGYTFTSYLMHWVRQAPGQGLEWIGYINPYNDGTNYAQKFQGRATLTSDKSTSTAYMELSSLRSEDTAVYYCTRGDYWGQGTLVTVSS VL: DIVMTQSPDSLAVSLGERATINCKSSQSLLNSGNQKNYLTWYQQKPGQPPKLLIYWASIRQSGVPDRFSGSGSGTDFTLTISSLQAEDVAVYYCLNDYGFPLTFGQGTKLEIK | 138000 | 28600 |
| HuAb358-1 (antibody, V domains shown) VH: EVQLVESGGGLVQPGGSLRLSCAVSGFTFSSFGMHWVRQAPGKGLEWVAYISSGTTNIYYADSVKGRFTVSRDNAKNSLYLQMNSLRAEDTAVYYCVRSGYYGNSLDYWGQGTLVTVSS VL: DIVMTQSPDSLAVSLGERATINCKSSQSLFNSGNQRNYLTWYQQKPGQPPKLLIYWASTRESGVPDRFSGSGSGTDFTLTISSLQAEDVAVYYCQNVYIYPLTFGQGTKLEIK | 131000 | 52700 |
| HuAb360-1 (antibody, V domains shown) VH: QVQLVQSGAEVKKPGASVKVSCKASGYTFTSYLMHWVRQAPGQGLEWIGYINPYNDGTNYAQKFQGRVTMTSDTSTSTVYMELSSLRSEDTAVYYCTRGDYWGQGTLVTVSS VL: DIVMTQSPDSLAVSLGERATINCKSSQSLLNSGNQKNYLTWYQQKPGQPPKLLIYWASIRQSGVPDRFSGSGSGTDFTLTISSLQAEDVAVYYCLNDYGFPLTFGQGTKLEIK | 120000 | 26400 |
| HuAb307-2 (antibody, V domains shown) VH: EVQLLESGGGLVQPGGSLRLSCAASGFTFSSYTMSWVRQAPGKGLEWVATIIIGGSYTYYADSVKGRFTISRDNSKNTLYLQMNSLRAEDTAVYYCTRLVKGNAMDYWGQGTLVTVSS VL: DIVMTQSPDSLAVSLGERATINCKSSQSLLNSGNQKNYLSWYQQKPGQPPKLLFYWASTRESGVPDRFSGSGSGTDFTLTISSLQAEDVAVYYCQNDYSYPFTFGQGTKLEIK | 133000 | 32500 |
| HuAb432-2 (antibody, V domains shown) VH: QVQLVQSGAEVKKPGSSVKVSCKASGYTFTSDVISWVRQAPGQGLEWMGESYLRNGNTYYAQKFQGRVTITADKSTSTAYMELSSLRSEDTAVYYCARSYYGNSFAYWGQGTLVTVSS VL: DIVMTQSPDSLAVSLGERVTMNCKSTQSLLNSGNQKNYLTWYQQKPGQPPKLLIYWASTRESGVPDRFSGSGSGTDFTLTISSVQAEDVAVYYCQNAYYYPFTFGQGTKLEIK | 128000 | 36100 |
| HuAb432-4 (antibody, V domains shown) VH: QVQLVQSGAEVKKPGSSVKLSCKASGYTFTSDVISWVRQAPGQGLEWIGESYLRNGNTYYAQKFQGRATLTADKSTSTAYMELSSLRSEDTAVYYCARSYYGNSFAYWGQGTLVTVSS VL: DIVMTQSPDSLAVSLGERVTMNCKSTQSLLNSGNQKNYLTWYQQKPGQPPKLLIYWASTRESGVPDRFSGSGSGTDFTLTISSVQAEDVAVYYCQNAYYYPFTFGQGTKLEIK | 173000 | 23100 |
| HuAb376-2 (antibody, V domains shown) VH: EVQLLESGGGLVQPGGSLRLSCAASGFTFSSYTMSWVRQAPGKGLEWVATISSGVSYTYYADSVKGRFTISRDNSKNTLYLQMNSLRAEDTAVYYCTRLTKGNAMDYWGQGTLVTVSS VL: DIVMTQSPDSLAVSLGERVTMNCKSSQSLLNSGNQKNYLTWYQQKPGQPPKLLIYWASTRESGVPDRFSGSGSGTDFTLTISSVQAEDVAVYYCQNDYSYPFTFGQGTKLEIK | 119000 | 28300 |
| HuAb360-4 (antibody, V domains shown) VH: QVQLVQSGAEVKKPGASVKMSCKASGYTFTSYLMHWVRQAPGQGLEWIGYINPYNDGTNYAQKFQGRATLTSDTSTSTAYMELSSLRSEDTAVYYCTRGDYWGQGTLVTVSS VL: DIVMTQSPDSLAVSLGERVTMNCKSSQSLLNSGNQKNYLTWYQQKPGQPPKLLIYWASIRQSGVPDRFSGSGSGTDFTLTISSVQAEDVAVYYCLNDYGFPLTFGQGTKLEIK | 149000 | 28000 |
| HuAb432-3 (antibody, V domains shown) VH: QVQLVQSGAEVKKPGSSVKLSCKASGYTFTSDVISWVRQAPGQGLEWIGESYLRNGNTYYAQKFQGRATLTADKSTSTAYMELSSLRSEDTAVYYCARSYYGNSFAYWGQGTLVTVSS VL: DIVMTQSPDSLAVSLGERATINCKSTQSLLNSGNQKNYLTWYQQKPGQPPKLLIYWASTRESGVPDRFSGSGSGTDFTLTISSLQAEDVAVYYCQNAYYYPFTFGQGTKLEIK | 88800 | 27100 |
| HuAb360-2 (antibody, V domains shown) VH: QVQLVQSGAEVKKPGASVKVSCKASGYTFTSYLMHWVRQAPGQGLEWIGYINPYNDGTNYAQKFQGRVTMTSDTSTSTVYMELSSLRSEDTAVYYCTRGDYWGQGTLVTVSS VL: DIVMTQSPDSLAVSLGERVTMNCKSSQSLLNSGNQKNYLTWYQQKPGQPPKLLIYWASIRQSGVPDRFSGSGSGTDFTLTISSVQAEDVAVYYCLNDYGFPLTFGQGTKLEIK | 138000 | 24900 |
| HuAb376-1 (antibody, V domains shown) VH: EVQLLESGGGLVQPGGSLRLSCAASGFTFSSYTMSWVRQAPGKGLEWVATISSGVSYTYYADSVKGRFTISRDNSKNTLYLQMNSLRAEDTAVYYCTRLTKGNAMDYWGQGTLVTVSS VL: DIVMTQSPDSLAVSLGERATINCKSSQSLLNSGNQKNYLTWYQQKPGQPPKLLIYWASTRESGVPDRFSGSGSGTDFTLTISSLQAEDVAVYYCQNDYSYPFTFGQGTKLEIK | 140000 | 29700 |
| Ab 307 (antibody, V domains shown) VH: DVKLVESGGGLVKPGGSLKLSCAASGFTFSSYTMSWVRQTPEKRLEWVATIIIGGSYTYYPDSVKGRFTISRDNAKNTLYLQMSSLKSEDTAMYYCTRLVKGNAMDYWGQGTSVAVSS VL: DIVMTQSPSSLTVTTGEKVTMSCKSSQSLLNSGNQKNYLSWYQQIPGQPPKLLFYWASTRESGVPDRFTGSGSGTDFTLTISNVQAEDLAVYYCQNDYSYPFTFGAGTKLELR | 141000 | 34700 |
